IntAct's records for PubMed 21621563

B1: Forkhead box protein O3 (Homo sapiens), O43524 (parent)
chain: MAEAPASPAPLSPLEVELDPEFEPQSRPRSCTWPLQRPELQASPAKPSGETAADSMIPEEEDDEDDEDGGGRAGSAMAIGGGGGSGTLGSGLLLEDSARVLAPGGQDPGSGPATAAGGLSGGTQALLQPQQPLPPPQPGAAGGSGQPRKCSSRRNAWGNLSYADLITRAIESSPDKRLTLSQIYEWMVRCVPYFKDKGDSNSSAGWKNSIRHNLSLHSRFMRVQNEGTGKSSWWIINPDGGKSGKAPRRRAVSMDNSNKYTKSRGRAAKKKAALQTAPESADDSPSQLSKWPGSPTSRSSDELDAWTDFRSRTNSNASTVSGRLSPIMASTELDEVQDDDAPLSPMLYSSSASLSPSVSKPCTVELPRLTDMAGTMNLNDGLTENLMDDLLDNITLPPSQPSPTGGLMQRSSSFPYTTKGSGLGSPTSSFNSTVFGPSSLNSLRQSPMQTIQENKPATFSSMSHYGNQTLQDLLTSDSLSHSDVMMTQSDPLMSQASTAVSAQNSRRNVMLRNDPMMSFAAQPNQGSLVNQNLLHHQHQTQGALGGSRALSNSVSNMGLSESSSLGSAKHQQQSPVSQSMQTLSDSLSGSSLYSTSANLPVMGHEKFPSDLDLDMFNGSLECDMESIIRSELMDADGLDFNFDSLISTQNVVGLNVGNFTGAKQASSQSWVPG

Legend:
[1] = variants of: B1; details: with 1433z_mouse Ywhaz
[2] = variants of: B1; details: with akt1_human AKT1, P31749
akt1_human AKT1, P31749, sequence (P31749 whole entry): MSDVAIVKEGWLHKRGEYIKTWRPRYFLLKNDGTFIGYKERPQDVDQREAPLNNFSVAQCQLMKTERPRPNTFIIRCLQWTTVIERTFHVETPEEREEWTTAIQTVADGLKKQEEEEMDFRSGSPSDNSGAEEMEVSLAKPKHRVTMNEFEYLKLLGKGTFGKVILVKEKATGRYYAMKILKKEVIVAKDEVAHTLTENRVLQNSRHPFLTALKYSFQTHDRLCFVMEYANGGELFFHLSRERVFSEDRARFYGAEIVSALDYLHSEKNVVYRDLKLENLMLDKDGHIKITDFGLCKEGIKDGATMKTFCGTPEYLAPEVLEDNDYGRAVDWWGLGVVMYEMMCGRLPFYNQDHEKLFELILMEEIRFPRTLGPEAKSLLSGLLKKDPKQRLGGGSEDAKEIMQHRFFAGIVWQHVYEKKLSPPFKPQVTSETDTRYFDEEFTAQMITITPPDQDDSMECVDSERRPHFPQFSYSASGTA

effect of a mutation on the interaction [1] | effect of a mutation on the interaction [2] | Variant
disrupting interaction strength | decreasing interaction strength | R27L;R29L;R248L;R250L;R310L;R312L
decreasing interaction strength | with no effect | P34A
disrupting interaction strength | with no effect | R27L;R29L
disrupting interaction strength | decreasing interaction strength | R27L;R29L;R248L;R250L
disrupting interaction strength | decreasing interaction strength | T32A;S253A;S315A
